One data set has as its target T1, CmGH1 (Croceicoccus marinus, UniProt A0A1Z1FG87).
T1 construct: gene A9D14_15590; N-terminal His6-SUMO tag (pSMT3) cut with Ulp1; expressed in E. coli BL21 (DE3)
Nature of the data set: residual p-NPG hydrolysis with added glucose. The data set is classed as biochemical. The following applies: p-NPG substrate; product inhibition.

Substrate in the data set “purified protein”: O=[N+]([O-])c1ccc(O[C@@H]2O[C@H](CO)[C@@H](O)[C@H](O)[C@H]2O)cc1
Nature of the data set: purified protein. The settings on record: conditions of the Km not stated, optimum pH 9.0, 55°C.

Consider `OC[C@H]1OC(O)[C@H](O)[C@@H](O)[C@@H]1O` (some centres unmarked) [glucose], for which the “% relative activity remaining at 200 mM” value on CmGH1 is over 30%.

B1: CmGH1 (Croceicoccus marinus) (protein)
chain: MTSDLIAKLSVNAGEPIGNMRQLHGTSGIPAPAPGTDSVPDILDVWRNAQVTLVRSYDWVSRLDTIDNPTSLFPDWSADPSDPASYNFAATDTWVGQTRSIGANILFTIASEIPANKQPARDLAKYEQVVENIVRHYVCGWGDGFENAVSHWEFGDQPDFGKLHFSGTPDQFYEMYAAAARAVKRVDPALKVGGPCVAFPLNEGPFREGFLDYVKQQSVPLDFLSWMWYGDNSRDPMDFRTIAAEVRAIVDKYGFTDTELLLSYWSMTGIPTAKFEDFDNAAFLAAAAIYMQDSEVDKAIFFRADTGADFHYNFTDPAGIFEDDGSQNARTGAFQLVGQTLATTERLAITGGDDNGFAALAGRTADGDTIRILISNYAIPDMYLTARDRDVFEFQVPIGDQKTDMSLNVPPRRVDARSTGYSGYTLEIGHLPWGDGPHRVVRYRADRDHKGEMLDSHEGRGSSVTVQNKLAVSGVELIEITRVSS
Take B1: in “purified protein”, the Km was determined as 332 ± 38 µM and the kcat worked out at 0.0358 ± 0.00135 s⁻¹.

B2: CmGH1 (Croceicoccus marinus; Q157E) (protein)
chain: MTSDLIAKLSVNAGEPIGNMRQLHGTSGIPAPAPGTDSVPDILDVWRNAQVTLVRSYDWVSRLDTIDNPTSLFPDWSADPSDPASYNFAATDTWVGQTRSIGANILFTIASEIPANKQPARDLAKYEQVVENIVRHYVCGWGDGFENAVSHWEFGDEPDFGKLHFSGTPDQFYEMYAAAARAVKRVDPALKVGGPCVAFPLNEGPFREGFLDYVKQQSVPLDFLSWMWYGDNSRDPMDFRTIAAEVRAIVDKYGFTDTELLLSYWSMTGIPTAKFEDFDNAAFLAAAAIYMQDSEVDKAIFFRADTGADFHYNFTDPAGIFEDDGSQNARTGAFQLVGQTLATTERLAITGGDDNGFAALAGRTADGDTIRILISNYAIPDMYLTARDRDVFEFQVPIGDQKTDMSLNVPPRRVDARSTGYSGYTLEIGHLPWGDGPHRVVRYRADRDHKGEMLDSHEGRGSSVTVQNKLAVSGVELIEITRVSS
B2: in the data set “purified protein”, the Km worked out at 354.2 ± 42 µM and the kcat is 0.488 ± 0.0147 s⁻¹.

The term Km denotes the substrate concentration at which the rate is half of its maximum. Usually kcat stands for the number of substrate molecules converted per active site and unit of time at saturation.

For the origin of these results see PMC6933502, “Structural and Functional Insights Into CmGH1, a Novel GH39 Family β-Glucosidase From Deep-Sea Bacterium” (Frontiers in Microbiology, 2019).
